Reference: paper PMC9443353

What was measured:
ZIKV NS1 [1] = target: T1, ZIKV NS1 (Zika virus, UniProt A0A024B7W1 795-1146); test: ELONA; protein on Cu2+-coated plate; Hill slope fit; ELONA: borate buffer (60 mM in selection), 37 °C, 30 min, pH not stated; specificity: selection buffer, filtration, qPCR; FET: human serum as gate electrolyte; conditions: chain copies: 2; label: digoxigenin
ZIKV NS1 [2] = target: T1, ZIKV NS1; test: graphene FET; human serum; Hill n = 0.8 ± 0.2; sequential NS1 addition; ELONA: borate buffer (60 mM in selection), 37 °C, 30 min, pH not stated; specificity: selection buffer, filtration, qPCR; FET: human serum as gate electrolyte; conditions: chain copies: 2
YFV NS1 = YFV NS1 (Yellow fever virus, UniProt P03314 779-1130)
DENV1 NS1 = DENV1 NS1 (Dengue virus serotype 1, UniProt P17763 776-1127); test: filter binding with qPCR; 100 nM aptamer, 40 pmol protein; ELONA: borate buffer (60 mM in selection), 37 °C, 30 min, pH not stated; specificity: selection buffer, filtration, qPCR; FET: human serum as gate electrolyte; conditions: chain copies: 2
DENV3 NS1 = DENV3 NS1 (Dengue virus serotype 3, UniProt Q6YMS4 774-1125); test: as above

B1: ZIKV60 (digoxigenin-labeled) (ssDNA)
DNA: CTTCTGCCCGCCTCCTTCCGGGCCCCGGGGGGTGTCCAGGCCCATGCGTCGTCCGCGGGGAGACGAGATAGGCGGACACT
Kd (ZIKV NS1 [1]): 2.28 ± 0.28 nM

B2: ZIKV60 (pyrene-modified) (ssDNA)
DNA: CTTCTGCCCGCCTCCTTCCGGGCCCCGGGGGGTGTCCAGGCCCATGCGTCGTCCGCGGGGAGACGAGATAGGCGGACACT
modifications: pyrene
apparent K (half saturation) (ZIKV NS1 [2]): 1.4 ± 0.3 pg/mL

B3: ZIKV60 (ssDNA)
DNA: CTTCTGCCCGCCTCCTTCCGGGCCCCGGGGGGTGTCCAGGCCCATGCGTCGTCCGCGGGGAGACGAGATAGGCGGACACT
binding signal (YFV NS1): 14.2 ratio ZIKV NS1/YFV NS1 bound | binding signal (DENV1 NS1): 14.2 ratio ZIKV NS1/DENV1 NS1 bound | binding signal (DENV3 NS1): 13.4 ratio ZIKV NS1/DENV3 NS1 bound
